The source of these data is publication PMC3138243 (The Journal of Biological Chemistry, 2011).

Read-outs that look alike come from different tables or passages of the source.

The target of series [1] is CLOCK:BMAL1 heterodimer (mouse, UniProt O08785;Q9WTL8). Description: native gel or EMSA.
Series [2] concerns the target T1, CLOCK (co-expressed with BMAL1);BMAL1 (Mus musculus;Mus musculus, UniProt O08785;Q9WTL8 1-855;1-632, |). Description: EMSA. (In general: Mobility shift assays separate free from complexed probe on a gel.)
Series [3] addresses T2, CLOCK (co-expressed with BMAL1);BMAL1;CRY1 (Mus musculus;Mus musculus;Mus musculus, UniProt O08785;Q9WTL8;P97784 1-855;1-632;1-606, ||). Description: EMSA supershift.
The target in series [4] is PER2 (mouse, UniProt O54943 1-1257). Description: co-IP.
Sequence of PER2 (O54943 whole entry): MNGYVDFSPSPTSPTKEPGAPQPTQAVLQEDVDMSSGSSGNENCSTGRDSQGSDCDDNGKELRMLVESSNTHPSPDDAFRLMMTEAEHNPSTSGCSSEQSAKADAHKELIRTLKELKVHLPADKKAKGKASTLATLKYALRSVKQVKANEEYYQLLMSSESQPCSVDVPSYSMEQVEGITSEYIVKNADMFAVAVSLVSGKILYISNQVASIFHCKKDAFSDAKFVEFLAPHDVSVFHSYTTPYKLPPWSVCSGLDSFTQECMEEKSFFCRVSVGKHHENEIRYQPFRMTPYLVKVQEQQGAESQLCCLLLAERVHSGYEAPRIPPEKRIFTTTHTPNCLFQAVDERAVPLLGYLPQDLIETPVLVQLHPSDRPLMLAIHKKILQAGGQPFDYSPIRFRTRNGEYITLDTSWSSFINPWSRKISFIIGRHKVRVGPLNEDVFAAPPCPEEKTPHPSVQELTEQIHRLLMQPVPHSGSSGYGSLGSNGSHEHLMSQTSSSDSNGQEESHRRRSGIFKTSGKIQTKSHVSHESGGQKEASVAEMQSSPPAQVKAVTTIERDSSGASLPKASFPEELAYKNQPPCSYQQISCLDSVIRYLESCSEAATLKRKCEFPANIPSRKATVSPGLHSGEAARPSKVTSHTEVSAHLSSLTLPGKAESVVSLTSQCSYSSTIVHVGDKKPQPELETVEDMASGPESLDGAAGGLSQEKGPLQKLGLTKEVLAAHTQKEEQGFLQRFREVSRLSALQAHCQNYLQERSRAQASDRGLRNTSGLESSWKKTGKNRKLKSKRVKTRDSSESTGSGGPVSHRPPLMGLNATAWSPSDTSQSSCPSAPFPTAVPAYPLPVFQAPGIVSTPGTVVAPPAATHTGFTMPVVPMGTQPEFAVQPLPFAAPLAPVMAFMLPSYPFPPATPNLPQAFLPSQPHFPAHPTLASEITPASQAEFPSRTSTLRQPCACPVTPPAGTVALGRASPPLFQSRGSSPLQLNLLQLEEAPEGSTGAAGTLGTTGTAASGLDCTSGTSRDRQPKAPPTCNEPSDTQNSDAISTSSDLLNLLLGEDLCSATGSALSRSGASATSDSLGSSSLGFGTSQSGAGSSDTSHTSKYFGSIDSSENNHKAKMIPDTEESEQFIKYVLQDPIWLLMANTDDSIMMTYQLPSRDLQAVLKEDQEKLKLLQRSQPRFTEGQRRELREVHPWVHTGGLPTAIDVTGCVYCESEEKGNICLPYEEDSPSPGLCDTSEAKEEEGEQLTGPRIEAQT
Series [5] has as its target T1, CLOCK (co-expressed with BMAL1);BMAL1. Description: EMSA. The source holds these as a separate data set.
Series [6] concerns the target T3, CRY1 (Mus musculus, UniProt P97784 1-606).
T3 sequence: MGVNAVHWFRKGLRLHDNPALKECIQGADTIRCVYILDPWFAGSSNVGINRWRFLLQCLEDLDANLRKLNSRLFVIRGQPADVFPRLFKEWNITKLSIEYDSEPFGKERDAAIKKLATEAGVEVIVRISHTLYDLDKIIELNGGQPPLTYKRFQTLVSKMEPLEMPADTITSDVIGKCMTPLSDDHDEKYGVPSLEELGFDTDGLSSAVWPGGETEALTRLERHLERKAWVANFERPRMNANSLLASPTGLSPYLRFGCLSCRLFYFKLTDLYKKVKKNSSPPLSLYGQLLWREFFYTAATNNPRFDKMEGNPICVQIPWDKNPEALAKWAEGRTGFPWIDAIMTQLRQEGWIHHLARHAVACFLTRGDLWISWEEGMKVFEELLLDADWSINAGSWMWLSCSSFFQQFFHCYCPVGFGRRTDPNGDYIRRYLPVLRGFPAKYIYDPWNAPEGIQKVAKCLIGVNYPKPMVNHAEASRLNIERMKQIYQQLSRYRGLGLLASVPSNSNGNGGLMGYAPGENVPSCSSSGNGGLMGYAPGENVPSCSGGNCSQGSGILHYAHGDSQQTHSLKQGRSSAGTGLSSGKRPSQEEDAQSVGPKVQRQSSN
Description: EMSA.

Series [7] addresses CLOCK (co-expressed with BMAL1);BMAL1;hCRY1 (Mus musculus;Mus musculus;Homo sapiens, UniProt O08785;Q9WTL8;Q16526 1-855;1-632;1-586, ||). Description: EMSA.
In series [8] the target is BMAL1 (Mus musculus, UniProt Q9WTL8 1-632). Description: EMSA.
Sequence of BMAL1 (Q9WTL8 whole entry): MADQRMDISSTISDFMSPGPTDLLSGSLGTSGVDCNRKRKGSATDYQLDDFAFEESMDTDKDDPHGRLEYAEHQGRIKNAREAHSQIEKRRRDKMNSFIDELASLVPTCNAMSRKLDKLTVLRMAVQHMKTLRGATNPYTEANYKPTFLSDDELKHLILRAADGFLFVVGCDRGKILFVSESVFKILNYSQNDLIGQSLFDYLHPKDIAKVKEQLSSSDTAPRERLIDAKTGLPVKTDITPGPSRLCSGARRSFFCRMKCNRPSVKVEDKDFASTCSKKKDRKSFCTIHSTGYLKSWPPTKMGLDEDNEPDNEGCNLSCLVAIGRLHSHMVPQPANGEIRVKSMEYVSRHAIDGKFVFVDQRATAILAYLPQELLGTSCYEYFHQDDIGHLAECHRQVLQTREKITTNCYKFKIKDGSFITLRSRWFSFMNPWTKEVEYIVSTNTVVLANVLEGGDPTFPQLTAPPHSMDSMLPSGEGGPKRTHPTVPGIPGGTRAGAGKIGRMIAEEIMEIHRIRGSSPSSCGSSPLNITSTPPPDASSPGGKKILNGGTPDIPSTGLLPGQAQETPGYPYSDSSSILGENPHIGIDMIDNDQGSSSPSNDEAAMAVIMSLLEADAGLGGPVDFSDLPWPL
Series [9] concerns the target CLOCK (co-expressed with BMAL1);BMAL1;CRY2 (Mus musculus;Mus musculus;Mus musculus, UniProt O08785;Q9WTL8;Q9R194 1-855;1-632;1-592, ||). Description: EMSA supershift.
Series [10] deals with T2, CLOCK (co-expressed with …). Description: EMSA supershift. This is another data set of the same source.

Sequence of CLOCK:BMAL1 heterodimer (Q9WTL8 whole entry, one chain of several): as the sequence (Q9WTL8 whole entry) above
T2 sequence (Q9WTL8 whole entry, one chain of several): as the sequence (Q9WTL8 whole entry) above
T1 sequence (Q9WTL8 whole entry, one chain of several): as the sequence (Q9WTL8 whole entry) above
Sequence of CLOCK (co-expressed with BMAL1);BMAL1;hCRY1 (Q9WTL8 whole entry, one chain of several): as the sequence (Q9WTL8 whole entry) above
Sequence of CLOCK (co-expressed with BMAL1);BMAL1;CRY2 (Q9WTL8 whole entry, one chain of several): as the sequence (Q9WTL8 whole entry) above

B1: CRY1 (natural protein)
chain: MGVNAVHWFRKGLRLHDNPALKECIQGADTIRCVYILDPWFAGSSNVGINRWRFLLQCLEDLDANLRKLNSRLFVIRGQPADVFPRLFKEWNITKLSIEYDSEPFGKERDAAIKKLATEAGVEVIVRISHTLYDLDKIIELNGGQPPLTYKRFQTLVSKMEPLEMPADTITSDVIGKCMTPLSDDHDEKYGVPSLEELGFDTDGLSSAVWPGGETEALTRLERHLERKAWVANFERPRMNANSLLASPTGLSPYLRFGCLSCRLFYFKLTDLYKKVKKNSSPPLSLYGQLLWREFFYTAATNNPRFDKMEGNPICVQIPWDKNPEALAKWAEGRTGFPWIDAIMTQLRQEGWIHHLARHAVACFLTRGDLWISWEEGMKVFEELLLDADWSINAGSWMWLSCSSFFQQFFHCYCPVGFGRRTDPNGDYIRRYLPVLRGFPAKYIYDPWNAPEGIQKVAKCLIGVNYPKPMVNHAEASRLNIERMKQIYQQLSRYRGLGLLASVPSNSNGNGGLMGYAPGENVPSCSSSGNGGLMGYAPGENVPSCSGGNCSQGSGILHYAHGDSQQTHSLKQGRSSAGTGLSSGKRPSQEEDAQSVGPKVQRQSSN
In the case of B1, the binding result in series [1] is listed as “binds”.

B2: Myc-CRY1 (natural protein)
chain: MGVNAVHWFRKGLRLHDNPALKECIQGADTIRCVYILDPWFAGSSNVGINRWRFLLQCLEDLDANLRKLNSRLFVIRGQPADVFPRLFKEWNITKLSIEYDSEPFGKERDAAIKKLATEAGVEVIVRISHTLYDLDKIIELNGGQPPLTYKRFQTLVSKMEPLEMPADTITSDVIGKCMTPLSDDHDEKYGVPSLEELGFDTDGLSSAVWPGGETEALTRLERHLERKAWVANFERPRMNANSLLASPTGLSPYLRFGCLSCRLFYFKLTDLYKKVKKNSSPPLSLYGQLLWREFFYTAATNNPRFDKMEGNPICVQIPWDKNPEALAKWAEGRTGFPWIDAIMTQLRQEGWIHHLARHAVACFLTRGDLWISWEEGMKVFEELLLDADWSINAGSWMWLSCSSFFQQFFHCYCPVGFGRRTDPNGDYIRRYLPVLRGFPAKYIYDPWNAPEGIQKVAKCLIGVNYPKPMVNHAEASRLNIERMKQIYQQLSRYRGLGLLASVPSNSNGNGGLMGYAPGENVPSCSSSGNGGLMGYAPGENVPSCSGGNCSQGSGILHYAHGDSQQTHSLKQGRSSAGTGLSSGKRPSQEEDAQSVGPKVQRQSSN
As for B2, the binding result in series [1] is reported as “binds”.

B3: CRY2 (natural protein)
chain: MAAAAVVAATVPAQSMGADGASSVHWFRKGLRLHDNPALLAAVRGARCVRCVYILDPWFAASSSVGINRWRFLLQSLEDLDTSLRKLNSRLFVVRGQPADVFPRLFKEWGVTRLTFEYDSEPFGKERDAAIMKMAKEAGVEVVTENSHTLYDLDRIIELNGQKPPLTYKRFQALISRMELPKKPAVAVSSQQMESCRAEIQENHDDTYGVPSLEELGFPTEGLGPAVWQGGETEALARLDKHLERKAWVANYERPRMNANSLLASPTGLSPYLRFGCLSCRLFYYRLWDLYKKVKRNSTPPLSLFGQLLWREFFYTAATNNPRFDRMEGNPICIQIPWDRNPEALAKWAEGKTGFPWIDAIMTQLRQEGWIHHLARHAVACFLTRGDLWVSWESGVRVFDELLLDADFSVNAGSWMWLSCSAFFQQFFHCYCPVGFGRRTDPSGDYIRRYLPKLKGFPSRYIYEPWNAPESVQKAAKCIIGVDYPRPIVNHAETSRLNIERMKQIYQQLSRYRGLCLLASVPSCVEDLSHPVAEPGSSQAGSISNTGPRALSSGPASPKRKLEAAEEPPGEELTKRARVTEMPTQEPASKDS
Turning to B3, the binding result in series [1] is listed as “binds”.

B4: P2GS 60-bp duplex (dsDNA)
DNA 1: CATCACCCACTCACCCCTTAACGACACGTGGGCCCTCAATTGCCCTTCTCTCAGGATCTG
DNA 2: CAGATCCTGAGAGAAGGGCAATTGAGGGCCCACGTGTCGTTAAGGGGTGAGTGGGTGATG
B4: the binding result in [2] and in series [3] was “binds” throughout.

B5: CLOCK (natural protein)
chain: MVFTVSCSKMSSIVDRDDSSIFDGLVEEDDKDKAKRVSRNKSEKKRRDQFNVLIKELGSMLPGNARKMDKSTVLQKSIDFLRKHKETTAQSDASEIRQDWKPTFLSNEEFTQLMLEALDGFFLAIMTDGSIIYVSESVTSLLEHLPSDLVDQSIFNFIPEGEHSEVYKILSTHLLESDSLTPEYLKSKNQLEFCCHMLRGTIDPKEPSTYEYVRFIGNFKSLTSVSTSTHNGFEGTIQRTHRPSYEDRVCFVATVRLATPQFIKEMCTVEEPNEEFTSRHSLEWKFLFLDHRAPPIIGYLPFEVLGTSGYDYYHVDDLENLAKCHEHLMQYGKGKSCYYRFLTKGQQWIWLQTHYYITYHQWNSRPEFIVCTHTVVSYAEVRAERRRELGIEESLPETAADKSQDSGSDNRINTVSLKEALERFDHSPTPSASSRSSRKSSHTAVSDPSSTPTKIPTDTSTPPRQHLPAHEKMTQRRSSFSSQSINSQSVGPSLTQPAMSQAANLPIPQGMSQFQFSAQLGAMQHLKDQLEQRTRMIEANIHRQQEELRKIQEQLQMVHGQGLQMFLQQSNPGLNFGSVQLSSGNSNIQQLTPVNMQGQVVPANQVQSGHISTGQHMIQQQTLQSTSTQQSQQSVMSGHSQQTSLPSQTPSTLTAPLYNTMVISQPAAGSMVQIPSSMPQNSTQSATVTTFTQDRQIRFSQGQQLVTKLVTAPVACGAVMVPSTMLMGQVVTAYPTFATQQQQAQTLSVTQQQQQQQQQPPQQQQQQQQSSQEQQLPSVQQPAQAQLGQPPQQFLQTSRLLHGNPSTQLILSAAFPLQQSTFPPSHHQQHQPQQQQQLPRHRTDSLTDPSKVQPQ
As to B5, the binding result in series [4] is “binds”.

B6: human CRY1 (natural protein)
chain: MGVNAVHWFRKGLRLHDNPALKECIQGADTIRCVYILDPWFAGSSNVGINRWRFLLQCLEDLDANLRKLNSRLFVIRGQPADVFPRLFKEWNITKLSIEYDSEPFGKERDAAIKKLATEAGVEVIVRISHTLYDLDKIIELNGGQPPLTYKRFQTLISKMEPLEIPVETITSEVIEKCTTPLSDDHDEKYGVPSLEELGFDTDGLSSAVWPGGETEALTRLERHLERKAWVANFERPRMNANSLLASPTGLSPYLRFGCLSCRLFYFKLTDLYKKVKKNSSPPLSLYGQLLWREFFYTAATNNPRFDKMEGNPICVQIPWDKNPEALAKWAEGRTGFPWIDAIMTQLRQEGWIHHLARHAVACFLTRGDLWISWEEGMKVFEELLLDADWSINAGSWMWLSCSSFFQQFFHCYCPVGFGRRTDPNGDYIRRYLPVLRGFPAKYIYDPWNAPEGIQKVAKCLIGVNYPKPMVNHAEASRLNIERMKQIYQQLSRYRGLGLLASVPSNPNGNGGFMGYSAENIPGCSSSGSCSQGSGILHYAHGDSQQTHLLKQGRSSMGTGLSGGKRPSQEEDTQSIGPKVQRQSTN
Take B6: the binding result in series [1] is “binds”.

B7: M34 (dsDNA)
DNA 1: GGGACACGTGACCC
DNA 2: GGGTCACGTGTCCC
In the case of B7, the binding result in [5] is “binds”; in series [6] it was “no binding”; in [7] it was “binds”; in [8], “binds”; in [9], “binds”; in series [10] it was “binds”.
